Assay results from publication PMC7766085.

How the values were obtained:
[1] = target: AT1R, endogenous in mouse lung (mouse (endogenous in CD-1 mouse lung)) (UniProt P29754); experiment: proximity ligation; in situ PLA on fixed 30 µm lung sections of adult CD-1 mice; primary antibodies to the receptor and to ACE2, Duolink II probes anti-rabbit plus and anti-mouse minus; confocal microscopy
[2] = target: MasR, endogenous in mouse lung (mouse (endogenous in CD-1 mouse lung)) (UniProt P30554); experiment: as above
UniProt P30554, sequence (P30554 whole entry): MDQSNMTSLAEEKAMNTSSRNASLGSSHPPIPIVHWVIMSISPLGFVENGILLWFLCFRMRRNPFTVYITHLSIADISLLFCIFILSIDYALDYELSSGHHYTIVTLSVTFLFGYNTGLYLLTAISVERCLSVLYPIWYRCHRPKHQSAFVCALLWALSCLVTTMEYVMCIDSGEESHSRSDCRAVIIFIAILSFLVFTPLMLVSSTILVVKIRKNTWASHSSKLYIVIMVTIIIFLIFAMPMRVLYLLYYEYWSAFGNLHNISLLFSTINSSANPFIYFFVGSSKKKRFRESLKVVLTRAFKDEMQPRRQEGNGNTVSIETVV

[3] = target: AT1R, endogenous in mouse lung (mouse (endogenous in CD-1 mouse lung)) (UniProt P29754); experiment: proximity ligation; in situ PLA on fixed 30 µm lung sections of 19-day fetal CD-1 mice; primary antibodies to the receptor and to ACE2, Duolink II probes anti-rabbit plus and anti-mouse minus; confocal microscopy
[4] = target: MasR, endogenous in mouse lung (mouse (endogenous in CD-1 mouse lung)) (UniProt P30554); experiment: as above
[5] = target: AT2R, endogenous in mouse lung (mouse (endogenous in CD-1 mouse lung)) (UniProt P35374); experiment: proximity ligation; in situ PLA on fixed 30 µm lung sections of adult CD-1 mice; primary antibodies to the receptor and to ACE2, Duolink II probes anti-rabbit plus and anti-mouse minus; confocal microscopy
UniProt P35374, sequence (P35374 whole entry): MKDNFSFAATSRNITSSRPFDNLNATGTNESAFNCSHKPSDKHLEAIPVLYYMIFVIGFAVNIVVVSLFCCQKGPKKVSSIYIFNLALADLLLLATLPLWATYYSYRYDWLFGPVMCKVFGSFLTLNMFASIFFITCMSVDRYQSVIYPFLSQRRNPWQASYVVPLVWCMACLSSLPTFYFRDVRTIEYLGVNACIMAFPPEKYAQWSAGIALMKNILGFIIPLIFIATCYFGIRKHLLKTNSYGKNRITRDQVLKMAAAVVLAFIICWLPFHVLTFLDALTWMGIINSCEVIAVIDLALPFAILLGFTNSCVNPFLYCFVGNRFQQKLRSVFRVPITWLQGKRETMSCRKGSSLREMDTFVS

[6] = target: AT2R, endogenous in mouse lung (mouse (endogenous in CD-1 mouse lung)) (UniProt P35374); experiment: proximity ligation; in situ PLA on fixed 30 µm lung sections of 19-day fetal CD-1 mice; primary antibodies to the receptor and to ACE2, Duolink II probes anti-rabbit plus and anti-mouse minus; confocal microscopy

UniProt P29754, sequence (P29754 whole entry): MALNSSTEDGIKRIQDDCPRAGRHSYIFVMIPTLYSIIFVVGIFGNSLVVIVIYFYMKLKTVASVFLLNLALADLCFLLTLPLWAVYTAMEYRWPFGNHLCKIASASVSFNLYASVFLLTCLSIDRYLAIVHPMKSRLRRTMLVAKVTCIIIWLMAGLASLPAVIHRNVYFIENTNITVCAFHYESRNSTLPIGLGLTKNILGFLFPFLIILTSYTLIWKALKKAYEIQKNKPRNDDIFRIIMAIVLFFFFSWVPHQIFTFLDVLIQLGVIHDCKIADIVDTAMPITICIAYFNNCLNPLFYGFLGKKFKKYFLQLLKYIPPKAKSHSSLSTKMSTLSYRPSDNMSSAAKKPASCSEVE

percent of cells with PLA signal [1]	red dots per dot-containing cell (red dots/cell-expressing dots) [1]	percent of cells with PLA signal [2]	red dots per dot-containing cell (red dots/cell-expressing dots) [2]	percent of cells with PLA signal [3]	percent of cells with PLA signal [4]	percent of cells with PLA signal [5]	red dots per dot-containing cell (red dots/cell-expressing dots) [5]	percent of cells with PLA signal [6]	Substance
14 % of cells	10	8 % of cells	7	< 1 % of cells	< 1 % of cells	–	–	–	ACE2, endogenous in mouse lung (from UniProt Q8R0I0 18-805) (enzyme)
–	–	–	–	–	–	11 % of cells	6	< 1 % of cells	ACE2, endogenous in mouse lung (from UniProt Q8R0I0 18-805) (proximity to ACE2)
